Tests used:
[1] = tested on: MAL; experiment: Expression induction experiment with cytokines in cultured T cells derived from peripheral blood (MAL mRNA); type: cell-based, human; settings: 0-48 h, IL-4 2 ng/ml, IL-12 2 ng/ml, IFN-γ 200 ng/ml, IFN-α 100 IU/ml
Protocol: Effects of various cytokines on the MAL expression level were examined. T cells were separated from the peripheral blood sample from an normal healthy subject using the method described in Example 6, and stimulated with the anti-CD3 antibody to induce the cell growth. That is, on a culture plate which was surface-treated with the anti-CD3 antibody, the separated T cells were cultured in a 5% FCS-containing RPMI1640 medium (1 mM sodium pyruvate, 2 mM L-glutamine, 10 U/ml penicillin, 100 μg/ml streptomycin, and 200 U/ml IL-2) at a density of 5×10^5 cells/ml for 5 days. Grown T cells were diluted with the same medium to a density of 5×10^5 cells/ml, and cultured on a non-surface treated plate for further 3 days. The resulting cells were washed with the medium without IL-2, suspended in the medium (without IL-2) supplemented with cytokine for the stimulation at a density of 1×10^6 cells/ml, and cultured under the stimulation for a predetermined period of time. Cells were then collected to prepare RNA. Cytokines used are shown below:
The same medium as that described in Example 3 was used. During the cultivation for 0˜48 h, mRNA for MAL was induced in the case of stimulation with IL-4. […] Induction of MAL expression with IL-4 may indicate the association of MAL with the action of IL-4 in allergic diseases. For example, MAL may act during the differentiation process of T cell into Th2, and also may associate with the production of Th2 cytokines, IL-4, IL-5, and IL-10.

[2] = tested on: MAL protein; experiment: Induction of MAL protein expression in human peripheral blood T-cells (Western blotting of raft fraction); type: cell-based; settings: IL-4 2 ng/ml, 41 hours, fraction 4
Protocol: Human peripheral blood cells that had been cultured and propagated were similarly stimulated as in Example 7 with IL-4 (2 ng/ml) for 41 hours, and then the MAL protein expression in the raft fraction (fraction 4) was examined by Western blotting. As a result, the induction of the MAL protein expression by IL-4 was confirmed also in the raft of human peripheral blood T-cells (FIG. 8).

[3] = tested on: MAL protein; experiment: Induction of MAL protein expression in Jurkat cell line (Western blotting of raft fraction); type: cell-based, human; settings: Jurkat cells, IL-4 2 ng/ml, 32 hours, raft fractions 4, 5, 6
Protocol: Cell lysate was prepared from Jurkat cells that had been stimulated with IL-4 (2 ng/ml) for 32 hours, and subjected to sucrose density gradient centrifugation according to the method of Fernando Martin-Belmonte et al. (Fernando Martin-Belmonte, Rosa Puertollano, Jaime Millan, and Miguel A. Alonso. The MAL Proteolipid Is Necessary for the Overall Apical Delivery of Membrane Protein in the Polarized Epithelial Madin-Darby Canine Kidney and Fischer Rat Thyroid Cell Lines. Molecular Biology of the Cell 11, 2033-2045, June 2000) to separate the raft fraction (fractions 4, 5, and 6). Proteins in each fraction were separated by SDS polyacrylamide gel electrophoresis, and analyzed by Western blotting using antibody against MAL peptide or that against LAT (linker for activation of T cells).

Molecule	induction of mRNA for MAL [1]	MAL protein expression in the raft fraction [2]	expression of MAL protein in the raft [3]
IFN-α	No such action was observed	–	–
IFN-γ: cytokine used for stimulation of T cells (protein, UniProt P01579 24-161, looked up) Interferon gamma: QDPYVKEAENLKKYFNAGHSDVADNGTLFLGILKNWKEESDRKIMQSQIVSFYFKLFKNFKDDQSIQKSVETIKEDMNVKFFNSNKKKRDDFEKLTNYSVTDLNVQRKAIHELIQVMAELSPAAKTGKRKRSQMLFRG	No such action was observed	–	–
IL-4: cytokine used for stimulation of T cells (protein, UniProt P05112 25-153, looked up) Interleukin-4: HKCDITLQEIIKTLNSLTEQKTLCTELTVTDIFAASKNTTEKETFCRAATVLRQFYSHHEKDTRCLGATAQQFHRHKQLIRFLKRLDRNLWGLAGLNSCPVKEANQSTLENFLERLKTIMREKYSKCSS	induced	induction	increased

From patent US20030148312A1, “Method for testing for allergic disease” (NATIONAL CENTER FOR CHILD HEALTH AND DEVELOPMENT, priority 2001, published 2003)
